Among the data in article PMC9019814 are EC50 of chaperone protein for suppression of EDTA-induced aggregation of ADH (250 µg in 1 ml), amount of chaperone protein that suppresses the aggregation of βB2-crystallin (250 µg in 1 ml) and amount of chaperone protein for fifty percent protection from thermal aggregation of CS (75 µg in 1 ml) values, retold here.

For one assay, the target named is alcohol dehydrogenase (UniProt P00330).
The target of assay [1] is βB2-crystallin (calf (endogenous in calf lenses)) (UniProt P02522).
A further assay concerns the target citrate synthase (UniProt P00889).

Chain of human wild-type αA-crystallin (P02489 whole entry): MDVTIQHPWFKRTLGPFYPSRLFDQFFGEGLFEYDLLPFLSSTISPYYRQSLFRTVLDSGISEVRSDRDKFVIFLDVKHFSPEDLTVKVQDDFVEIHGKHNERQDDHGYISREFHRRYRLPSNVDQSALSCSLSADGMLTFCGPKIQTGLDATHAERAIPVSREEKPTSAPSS
Chain of βB2-crystallin (calf (endogenous in calf lenses)) (P02522 whole entry): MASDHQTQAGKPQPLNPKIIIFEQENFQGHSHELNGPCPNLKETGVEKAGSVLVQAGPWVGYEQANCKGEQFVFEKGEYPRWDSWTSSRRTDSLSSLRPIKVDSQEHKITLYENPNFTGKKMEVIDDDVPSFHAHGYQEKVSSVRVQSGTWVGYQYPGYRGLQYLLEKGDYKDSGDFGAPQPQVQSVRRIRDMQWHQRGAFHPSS
Chain of citrate synthase (P00889 28-464): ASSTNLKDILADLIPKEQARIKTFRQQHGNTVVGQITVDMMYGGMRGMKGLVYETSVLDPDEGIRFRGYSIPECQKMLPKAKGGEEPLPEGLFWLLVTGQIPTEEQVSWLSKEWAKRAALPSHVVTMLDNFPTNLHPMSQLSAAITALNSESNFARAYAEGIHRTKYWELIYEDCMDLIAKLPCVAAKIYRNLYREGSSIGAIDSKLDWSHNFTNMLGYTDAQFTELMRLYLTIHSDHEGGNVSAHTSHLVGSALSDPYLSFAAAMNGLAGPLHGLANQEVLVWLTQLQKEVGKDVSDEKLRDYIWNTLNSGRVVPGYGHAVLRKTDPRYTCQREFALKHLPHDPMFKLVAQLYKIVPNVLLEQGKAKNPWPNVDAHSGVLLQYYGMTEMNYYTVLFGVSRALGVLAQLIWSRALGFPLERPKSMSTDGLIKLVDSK
Chain of alcohol dehydrogenase (P00330 whole entry): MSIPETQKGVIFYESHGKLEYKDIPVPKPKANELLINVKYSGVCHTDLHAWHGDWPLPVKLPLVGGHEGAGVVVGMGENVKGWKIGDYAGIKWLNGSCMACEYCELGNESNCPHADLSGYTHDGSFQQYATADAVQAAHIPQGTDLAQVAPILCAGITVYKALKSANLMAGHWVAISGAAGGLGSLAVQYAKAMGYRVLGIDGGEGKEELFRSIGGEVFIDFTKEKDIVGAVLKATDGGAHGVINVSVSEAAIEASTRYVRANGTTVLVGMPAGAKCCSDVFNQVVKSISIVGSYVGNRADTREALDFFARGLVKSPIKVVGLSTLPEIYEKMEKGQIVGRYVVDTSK

Substance “human wild-type αA-crystallin (from UniProt P02489 1-173) (natural protein)” showed an EC50 of chaperone protein for suppression of EDTA-induced aggregation of ADH (250 µg in 1 ml) at 37°C, scattering at 360 nm at 60 min in the assay with alcohol dehydrogenase of 45 µg. The same substance showed an amount of chaperone protein that suppresses the aggregation of βB2-crystallin (250 µg in 1 ml) at 37°C by 50%, scattering at 360 nm at 60 min in assay [1] of 30 µg. Further, the amount of chaperone protein for fifty percent protection from thermal aggregation of CS (75 µg in 1 ml) at 43°C, scattering at 360 nm at 60 min with citrate synthase turned out to be 22 µg.
